Source: patent US11891634B2, “PDE5A destabilizing domains” (The Board of Trustees of the Leland Stanford Junior …, priority 2017, dated 2024)

Assays:
[1] = tested on: HCT 116 cells transduced with the PDE5A DD derived GFP constructs; assay: Response to Vardenafil, GFP expression by FACS in HCT116; assay type: cell-based, human; settings: for MFI / Stabilization ratio with Vardenafil: 48 hours, HCT116
Method: Mutations were created in PDE5A (535-860) catalytic domain using site directed mutagenesis and the mutants were cloned as AcGFP fusion into pELNS vector carrying mCherry marker and packaged in lentiviral vectors. HCT116 cells were transduced with the constructs and stable integrants were selected by cell sorting using mCherry marker. Cells were treated with vehicle (dimethyl sulfoxide, DMSO) or 10 μM Vardenafil (VDF) for 48 hours. Following the treatment, cells were analyzed for GFP expression using FACS. Basal expression was calculated as the ratio of GFP signal in the absence of ligand for a given cell line to auto fluorescence of parental HCT-116 cells. Stabilization ratio was calculated as the ratio of the GFP signal observed in the presence of stabilizing ligand to the signal from the same cell line in the absence of ligand.
HCT 116 cells transduced with the PDE5A DD derived GFP constructs were also tested with increasing doses of Vardenafil. The HCT116 cells were incubated for 48 hours with Vardenafil starting at a dose of 0.002 μM to 30 μM. The GFP intensity of the Vardenafil treated samples was compared to the parental untransduced HCT116 and DMSO treated cells for each construct. The mean fluorescence intensity was calculated for each sample and used to calculate the stabilization ratios as well as the basal expression for each construct. The GFP expression was measured using flow cytometry and the mean fluorescence intensity (MFI) was calculated for each sample. The stabilization ratios are shown in Table 13 and Table 14 and the basal expression is show in Table 15.

[2] = tested on: HCT116 cells transduced with the constructs; assay: Response to Sildenafil, GFP expression by flow cytometry in HCT116; assay type: cell-based, human; settings: for MFI / Stabilization ratio with Sildenafil: 48 hours, HCT116
Method: Similar experiments were performed in HCT116 cells using sildenafil. The above-mentioned DDs were cloned as AcGFP fusion into pELNS vector carrying mCherry marker and packaged in lentiviral vectors. HCT116 cells were transduced with the constructs and stable integrants were selected by cell sorting using mCherry marker. Cells were treated with sildenafil at the following μM concentrations: 0.01, 0.02, 0.05, 0.14, 0.41, 1.23, 3.7, 11.11, 33.33, and 100 for a duration of 48 hours. The fluorescence was analyzed by flow cytometry and the mean fluorescence intensity was calculated for all samples. […] The stabilization ratios are shown in Table 24 and Table 25 and the basal expression is show in Table 26.

B1: PDE5AC (#42): AcGFP fused to C-terminal DD 535-860 of PDE5A (E535D, K555R, F564S, Q589R, K630R, C677R, N742S, I799T, M816A), SEQ ID NO. 28 (protein)
chain: DETRELQSLAAAVVPSAQTLRITDFSFSDSELSDLETALCTIRMFTDLNLVQNFRMKHEVLCRWILSVKKNYRKNVAYHNWRHAFNTAQCMFAALRAGKIQNKLTDLEILALLIAALSHDLDHRGVNNSYIQRSEHPLAQLYRHSIMEHHHFDQCLMILNSPGNQILSGLSIEEYKTTLKIIKQAILATDLALYIKRRGEFFELIRKSQFNLEDPHQKELFLAMLMTACDLSAITKPWPIQQRIAELVATEFFDQGDRERKELNTEPTDLMNREKKNKIPSAQVGFIDAICLQLYEALTHVSEDCFPLLDGCRKNRQKWQALAEQQ
modifications: /note=“Description of Artificial Sequence Synthetic Destabilizing Domain (DD)”
B1 was tested, and the MFI ([1]; DMSO (no Vardenafil)) was 25111, the “Basal (DMSO/Parental)” value ([1]; Table 10, GFP signal without ligand / auto fluorescence of parental HCT-116) was 20.0 and the Basal ([1]; Table 15, MFI with DMSO / parental HCT116, Vardenafil experiment) was 12.85. The “Stabilization ratio with Vardenafil” value ([1]; Vardenafil 0.002 μM vs DMSO) was 1.0, the MFI ([1]; Vardenafil 0.002 μM) was 25236 and the MFI ([1]; Vardenafil 0.005 μM) was 28309. For the same molecule, the “Stabilization ratio with Vardenafil” value ([1]; Vardenafil 0.014 μM vs DMSO) was 1.4, the MFI ([1]; Vardenafil 0.014 μM) was 33958 and the “Stabilization ratio with Vardenafil” value ([1]; Vardenafil 0.041 μM vs DMSO) was 1.9. The MFI ([1]; Vardenafil 0.041 μM) was 46882, the “Stabilization ratio with Vardenafil” value ([1]; Vardenafil 0.123 μM vs DMSO) was 3.2 and the MFI ([1]; Vardenafil 0.123 μM) was 81233. The “Stabilization ratio with Vardenafil” value ([1]; Vardenafil 0.370 μM vs DMSO) was 4.6, the MFI ([1]; Vardenafil 0.370 μM) was 114847 and the “Stabilization ratio with Vardenafil” value ([1]; Vardenafil 1.111 μM vs DMSO) was 5.4. For the same molecule, the MFI ([1]; Vardenafil 1.111 μM) was 136303, the “Stabilization ratio with Vardenafil” value ([1]; Vardenafil 3.333 μM vs DMSO) was 5.9 and the MFI ([1]; Vardenafil 3.333 μM) was 147512. For the same molecule, the “Stabilization ratio with Vardenafil” value ([1]; Vardenafil 10 μM vs DMSO) was 6.4, the MFI ([1]; Vardenafil 10 μM) was 161587 and the “Stabilization ratio with Vardenafil” value ([1]; Vardenafil 30 μM vs DMSO) was 8.0. For the same molecule, the MFI ([1]; Vardenafil 30 μM) was 199877, the MFI ([2]; DMSO (no Sildenafil)) was 23943 and the “Stabilization ratio with Sildenafil” value ([2]; Sildenafil 0.01 μM vs DMSO) was 1.0. For the same molecule, the MFI ([2]; Sildenafil 0.01 μM) was 23295, the “Stabilization ratio with Sildenafil” value ([2]; Sildenafil 0.02 μM vs DMSO) was 1.0 and the MFI ([2]; Sildenafil 0.02 μM) was 23606. For the same molecule, the “Stabilization ratio with Sildenafil” value ([2]; Sildenafil 0.05 μM vs DMSO) was 1.0, the MFI ([2]; Sildenafil 0.05 μM) was 24817 and the “Stabilization ratio with Sildenafil” value ([2]; Sildenafil 0.14 μM vs DMSO) was 1.2. The MFI ([2]; Sildenafil 0.14 μM) was 29495, the “Stabilization ratio with Sildenafil” value ([2]; Sildenafil 0.41 μM vs DMSO) was 1.7 and the MFI ([2]; Sildenafil 0.41 μM) was 40817. The “Stabilization ratio with Sildenafil” value ([2]; Sildenafil 1.23 μM vs DMSO) was 2.6, the MFI ([2]; Sildenafil 1.23 μM) was 63410 and the “Stabilization ratio with Sildenafil” value ([2]; Sildenafil 3.70 μM vs DMSO) was 3.8. For the same molecule, the MFI ([2]; Sildenafil 3.70 μM) was 91798, the “Stabilization ratio with Sildenafil” value ([2]; Sildenafil 11.11 μM vs DMSO) was 5.3 and the MFI ([2]; Sildenafil 11.11 μM) was 127187. The “Stabilization ratio with Sildenafil” value ([2]; Sildenafil 33.33 μM vs DMSO) was 6.3, the MFI ([2]; Sildenafil 33.33 μM) was 149906 and the “Stabilization ratio with Sildenafil” value ([2]; Sildenafil 100.00 μM vs DMSO) was 6.9. The MFI ([2]; Sildenafil 100.00 μM) was 164269 and the Basal expression ([2]; Table 26, MFI with DMSO / parental HCT116, Sildenafil experiment) was 18.6.
